{
  "source": "patent US7792645B2",
  "about": "“Three-dimensional structure of chalcone isomerase and methods of use thereof” (The Salk Institute for Biological Studies, priority 2000, dated 2010)",
  "molecules": {"B1": {"name": "CHI wild-type: chalcone isomerase from Medicago sativa (alfalfa), SEQ ID NO:1, expressed in E. coli (protein, listed as Medicago sativa)", "chain": "MAASITAITVENLEYPAVVTSPVTGKSYFLGGAGEXGXTIEGNFIKFXAIGVYLEDIAVASLAAKWKGKSSEELLETLDFYRDIISGPFEKLIRGSKIRELSGPEXSRXXMEXCVAHLKSVGTYGDAEAEAMQKFAEAFKPVNFPPGASVFYRQSPDGILGLSFSPDTSIPEKEAALIENKAVSSAVLEXXIGEHAVSPDLKRCLAARLPALLNEGAFKIGN", "modifications": "MOD_RES (36) Arg, Met, Lys, Ala, His or Gln"}, "B2": {"name": "CHI Y106F: alfalfa chalcone isomerase mutant, Tyr 106 substituted by phenylalanine (protein, UniProt P28012 1-222, looked up, variant Y106F)", "Chalcone--flavanone isomerase …": "MAASITAITVENLEYPAVVTSPVTGKSYFLGGAGERGLTIEGNFIKFTAIGVYLEDIAVASLAAKWKGKSSEELLETLDFYRDIISGPFEKLIRGSKIRELSGPEFSRKVMENCVAHLKSVGTYGDAEAEAMQKFAEAFKPVNFPPGASVFYRQSPDGILGLSFSPDTSIPEKEAALIENKAVSSAVLETMIGEHAVSPDLKRCLAARLPALLNEGAFKIGN"}},
  "key": {"CHI active site": {"target": "T1, CHI active site (Medicago sativa, UniProt P28012)", "T1 construct": "histidine tag (pHIS8 vector) (N, cleaved yes); made in house; host or cells: E. coli BL21(DE3)", "T1 sequence (P28012 1-222)": "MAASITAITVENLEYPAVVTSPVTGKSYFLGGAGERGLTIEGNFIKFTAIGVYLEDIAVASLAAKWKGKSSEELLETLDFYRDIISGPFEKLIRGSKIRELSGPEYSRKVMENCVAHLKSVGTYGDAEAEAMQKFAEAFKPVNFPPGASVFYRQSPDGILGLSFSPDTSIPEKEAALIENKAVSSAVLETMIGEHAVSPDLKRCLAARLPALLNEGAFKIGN", "assay": "Co-crystallization of CHI with (2S/2R)-naringenin, X-ray structure", "assay_type": "binding, Medicago sativa (alfalfa)", "conditions": "commercial mixture of (2S)- and (2R)-naringenin used for co-crystallization", "protocol": "Crystals of CHI (SEQ ID NO:1) were grown at 4° C. by vapor diffusion using the hanging drop method. A 2 μl drop containing a 1:1 mixture of 25 mg ml^−1 CHI and crystallization buffer (25% glycerol, 1.8-2.0 M ammonium sulfate and 0.05 M PIPES, pH 6.5) yielded diffraction quality crystals within a few days at 4° C. Crystals grew in space group P6522 with unit cell dimensions of a=90.37 Å; c=352.86 Å with two molecules per asymmetric unit and a solvent content of 72%. Native CHI diffraction data (105 K) were collected at beamline 7-1 of the Stanford Synchrotron Radiation Source (SSRL 7-1) on a 30 cm MAR imaging plate system. For generation of heavy atom derivatives, CHI crystals were soaked in mother liquor with either 1.2 mM K2OsCl6 or 1 mM HgCl2 for 12-16 hours. Heavy atom data (105 K) were collected at SSRL 9-1 on a 30 cm MAR imaging plate system. All images were indexed and integrated using DENZO and the reflections merged with SCALEPACK (Otwinowski, Z. & Minor, W., Methods Enzymol. 276:307-326, 1997). Data reduction was completed using programs from CCP4 (Collaborative Computational Project 4 (CCP4) Acta Crystallogr. D53:240-255, 1994) (See Table 3). […]"}, "chalcone isomerase (CHI) [1]": {"system": "chalcone isomerase (CHI)", "conditions": "cyclization of chalcone; cited from earlier work"}, "chalcone isomerase (CHI) [2]": {"system": "chalcone isomerase (CHI)", "assay": "CHI enzyme assay, steady-state kinetics of 6′-deoxychalcone cyclization", "assay_type": "biochemical, Medicago sativa (alfalfa)", "conditions": "for kcat: cyclization of 6′-deoxychalcone, pH 7.5, substrate 2-50 μM; for kcat / Km: 25° C.; for Km: substrate 6′-deoxychalcone, pH 7.5", "protocol": "CHI assays were performed at 25° C. in a 0.5 ml reaction volume containing 0.05 M Hepes (pH 7.5), 50 μM 6′-deoxychalcone, and 3% ethanol as co-solvent. Time-dependent decreases in 6′-deoxychalcone absorbance (λmax=390 nm; ε=29,400 M^−1 cm^−1) were monitored with a Beckman DU-640 spectrophotometer. Determination of steady-state kinetic constants used the standard assay system with varied concentrations of substrate (2-50 μM) following fitting to the Michaelis-Menton equation using KALEIDAGRAPH (Abelbeck Software)."}, "[3]": {"target": "T2, alfalfa chalcone synthase 2 (Medicago sativa, UniProt P30074)", "T2 sequence (P30074 1-389)": "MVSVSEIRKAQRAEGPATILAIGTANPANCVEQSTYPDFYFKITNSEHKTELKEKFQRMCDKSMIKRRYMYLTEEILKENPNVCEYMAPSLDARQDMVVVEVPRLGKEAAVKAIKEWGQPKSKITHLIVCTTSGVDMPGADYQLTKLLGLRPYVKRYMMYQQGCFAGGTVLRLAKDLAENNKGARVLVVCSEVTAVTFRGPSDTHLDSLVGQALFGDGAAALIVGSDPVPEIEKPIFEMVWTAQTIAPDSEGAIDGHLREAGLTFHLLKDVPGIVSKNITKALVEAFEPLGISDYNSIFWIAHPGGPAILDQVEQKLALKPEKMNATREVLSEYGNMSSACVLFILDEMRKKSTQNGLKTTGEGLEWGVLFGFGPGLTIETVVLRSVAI", "assay": "Gel filtration and analytical ultracentrifugation for protein association in vitro", "assay_type": "binding"}},
  "data": [
    {"molecule": "O=C1C[C@@H](c2ccc(O)cc2)Oc2cc(O)cc(O)c21", "note": "[(2S)-naringenin, 5,7,4′-trihydroxyflavanone]", "values": [
      {"measurement": "binding to CHI active site in co-crystal", "setting": "CHI active site", "result": "bound the CHI active site"}
    ]},
    {"molecule": "B1", "values": [
      {"measurement": "enzyme-catalyzed rate over spontaneous conversion rate", "setting": "chalcone isomerase (CHI) [1]", "result": "10^7 fold"},
      {"measurement": "kcat", "setting": "chalcone isomerase (CHI) [2]", "result": "73.07 ± 8.62", "unit": "s⁻¹"},
      {"measurement": "kcat", "setting": "chalcone isomerase (CHI) [2]; listed as wild-type CHI", "result": 73.07, "unit": "s⁻¹"},
      {"measurement": "Km", "setting": "chalcone isomerase (CHI) [2]", "result": 25.7, "unit": "µM"},
      {"measurement": "association of alfalfa CHI and alfalfa chalcone synthase 2", "setting": "[3]", "result": "failed to detect association"}
    ]},
    {"molecule": "B2", "values": [
      {"measurement": "reduction in reaction rate", "setting": "chalcone isomerase (CHI) [2]; Y106F mutant versus wild-type CHI, 6′-deoxychalcone", "result": 100, "unit": "fold"},
      {"measurement": "kcat", "setting": "chalcone isomerase (CHI) [2]", "result": "1.15 ± 0.085", "unit": "s⁻¹"},
      {"measurement": "kcat", "setting": "chalcone isomerase (CHI) [2]; listed as CHI Y106F mutant", "result": 1.15, "unit": "s⁻¹"},
      {"measurement": "Km", "setting": "chalcone isomerase (CHI) [2]", "result": 29.1, "unit": "µM"}
    ]}
  ]
}
